According to paper PMC12416549 (2024):
Positions count from the first letter of the chain named. Numbers in names are those of the source.

T1: TNFR1 (Homo sapiens, UniProt P19438)
T1 chain: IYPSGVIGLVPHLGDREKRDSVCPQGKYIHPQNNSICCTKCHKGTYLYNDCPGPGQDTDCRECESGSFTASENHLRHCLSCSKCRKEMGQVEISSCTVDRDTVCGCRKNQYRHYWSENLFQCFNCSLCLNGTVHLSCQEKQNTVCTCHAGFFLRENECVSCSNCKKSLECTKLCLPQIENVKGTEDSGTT

B1: Y50C (designed binder)
chain: SMEEEVEKAAKEYEKKKKEAIEKHLEKLKAKDKEAAERFLKELEEAAKECAKDEAKTMSEEEAKRRAKKYKEKVLLSELSEEEQKEIKEAEEKLVRTILKYVEEAAK
B2: R65Y (designed binder)
chain: B1 chain with C50Y, R65Y
B3: A105C (designed binder)
chain: B1 chain with C50Y, A105C
B4: E3A (designed binder)
chain: B1 chain with E3A, C50Y
B5: L43A (designed binder)
chain: B1 chain with L43A, C50Y
B6: E12D (designed binder)
chain: B1 chain with E12D, C50Y
B7: E91Q (designed binder)
chain: B1 chain with C50Y, E91Q
B8: K52A (designed binder)
chain: B1 chain with C50Y, K52A
B9: A106L (designed binder)
chain: B1 chain with C50Y, A106L
B10: E5G (designed binder)
chain: B1 chain with E5G, C50Y
B11: A47N (designed binder)
chain: B1 chain with A47N, C50Y
B12: K73D (designed binder)
chain: B1 chain with C50Y, K73D
B13: A51S (designed binder)
chain: B1 chain with C50Y, A51S
B14: E22C (designed binder)
chain: B1 chain with E22C, C50Y
B15: E44P (designed binder)
chain: B1 chain with E44P, C50Y
B16: S80K (designed binder)
chain: B1 chain with C50Y, S80K
B17: S77V (designed binder)
chain: B1 chain with C50Y, S77V
B18: K41G (designed binder)
chain: B1 chain with K41G, C50Y
B19: K27W (designed binder)
chain: B1 chain with K27W, C50Y
B20: V95N (designed binder)
chain: B1 chain with C50Y, V95N
B21: L94P (designed binder)
chain: B1 chain with C50Y, L94P
B22: E89N (designed binder)
chain: B1 chain with C50Y, E89N
B23: V102G (designed binder)
chain: B1 chain with C50Y, V102G
B24: L76P (designed binder)
chain: B1 chain with C50Y, L76P
B25: L79F (designed binder)
chain: B1 chain with C50Y, L79F
B26: R66Q (designed binder)
chain: B1 chain with C50Y, R66Q
B27: A90C (designed binder)
chain: B1 chain with C50Y, A90C
B28: K100E (designed binder)
chain: B1 chain with C50Y, K100E
B29: R96E (designed binder)
chain: B1 chain with C50Y, R96E
B30: M58G (designed binder)
chain: B1 chain with C50Y, M58G
B31: L99P (designed binder)
chain: B1 chain with C50Y, L99P
B32: S1G (designed binder)
chain: B1 chain with S1G, C50Y
B33: A30M (designed binder)
chain: B1 chain with A30M, C50Y
B34: E61W (designed binder)
chain: B1 chain with C50Y, E61W
B35: K93A (designed binder)
chain: B1 chain with C50Y, K93A
B36: K107S (designed binder)
chain: B1 chain with C50Y, K107S
B37: K68S (designed binder)
chain: B1 chain with C50Y, K68S
B38: R65K (designed binder)
chain: B1 chain with C50Y, R65K
B39: E86M (designed binder)
chain: B1 chain with C50Y, E86M
B40: M58P (designed binder)
chain: B1 chain with C50Y, M58P
B41: T57N (designed binder)
chain: B1 chain with C50Y, T57N
B42: K88F (designed binder)
chain: B1 chain with C50Y, K88F
B43: A35N (designed binder)
chain: B1 chain with A35N, C50Y

Biological target: T1, TNFR1
Test: yeast display SC50

Binder	apparent Kd (screen)
B1	0.956 nM
B2	11.4 nM
B3	1.4 nM
B4	1.86 nM
B5	0.49 nM
B6	1.05 nM
B7	11.4 nM
B8	0.49 nM
B9	2.25 nM
B10	0.446 nM
B11	1.4 nM
B12	5.84 nM
B13	1.86 nM
B14	1.05 nM
B15	6.43 nM
B16	1.54 nM
B17	2.73 nM
B18	0.869 nM
B19	1.16 nM
B20	1.16 nM
B21	16.7 nM
B22	0.956 nM

Binder	apparent Kd (screen)
B23	0.446 nM
B24	1.54 nM
B25	2.05 nM
B26	11.4 nM
B27	0.593 nM
B28	1.54 nM
B29	4.39 nM
B30	22.2 nM
B31	15.2 nM
B32	0.653 nM
B33	0.593 nM
B34	1.86 nM
B35	0.79 nM
B36	1.05 nM
B37	0.718 nM
B38	0.869 nM
B39	0.869 nM
B40	0.653 nM
B41	2.05 nM
B42	0.539 nM
B43	1.69 nM
